Series [1] has as its target CdeM (Clostridium difficile). The experiment in a line: BLI. As to conditions: tags: His.
Series [2] deals with T1, CotEC chitinase (rCotEC P381-F712) (Clostridium difficile). Briefly: BLI. As to conditions: tags: C-terminal His.
For series [3], the target named is T2, CotA (Clostridium difficile, UniProt Q186G8 SEQ:1-305).
T2 sequence: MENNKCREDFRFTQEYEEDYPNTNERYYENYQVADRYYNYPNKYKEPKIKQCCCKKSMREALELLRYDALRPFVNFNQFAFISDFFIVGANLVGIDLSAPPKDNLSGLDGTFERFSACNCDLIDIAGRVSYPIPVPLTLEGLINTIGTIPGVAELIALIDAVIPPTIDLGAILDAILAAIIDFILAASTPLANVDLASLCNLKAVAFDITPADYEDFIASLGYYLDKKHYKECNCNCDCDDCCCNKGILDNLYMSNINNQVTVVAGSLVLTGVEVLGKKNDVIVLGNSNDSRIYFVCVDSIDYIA
The experiment in a line: BLI; slower association, little dissociation. As to conditions: tags: His6. The procedure: The refined pools (characterized in FIGS. 21-25) were taken forwards for monoclonal isolation. All aptamers were purified (after elution) and resuspended and stored in water. Before use in selections or binding assays, aptamers were diluted in a final concentration 1× buffer. Individual aptamer clones were isolated and screened by BLI using aptamer concentrations of 0.5 μM, 1 μM, or 2 μM. Again, the target was immobilized onto a Biolayer Interferometry sensor probe and then incubated with each aptamer clone. The results are presented below (FIGS. 26-30).
(In BLI a coated tip is dipped into the sample, and binding shifts an interference pattern.)

Series [4] addresses T1, CotEC chitinase (rCotEC P381-F712). Briefly: SPR. To be noted: tags: C-terminal His. The protocol: (§1) For CotE D2, CotE H2 and CotEC chitinase, aptamers were spotted on a gold surface at a concentration of 5 μM in PBS at a volume of approximately 10 nL in triplicate. Negative aptamers of the same length as the positive aptamers were spotted in the same manner, also in triplicate. Protein was then injected over the chip at a volume of 200 μL, with a flow rate of 50 μL/min in a Horiba (OpenPlex) surface plasmon resonance imaging (SPRi) instrument. Resonance due to binding was obtained by subtracting total resonance on the negative sequences from total resonance on the positive sequences. Disassociation values were computed with the following equation: dx/dt˜−kd*x, wherein dx/dt is the derivative of resonance values as a function of time and x is the resonance value for any given time point. Association values were computed with the following equation: dx/dt˜ka*c*Rmax−(ka*c+kd)*x, where x is the resonance due to binding at specific time points, c is the concentration of injectant, and Rmax is the maximum resonance observed.
(§2) For aptamer CdeC D1 (SEQ ID No 6), the KD was not determined due to protein aggregation.

The target in series [5] is T2, CotA. Briefly: SPR; CotA immobilized on hydrogel chip by EDC, aptamer injected. To be noted: tags: His6. The procedure:
For CotA C1, the protein was immobilized on a hydrogel chip with EDC-mediated conjugation between primary amines on the protein (side chains on residues) and carboxylic acid groups on the surface of the chip. A protein of similar size was immobilized in the same manner as a negative control. […] For CdeC D1, the protein was received as aggregated, insoluble balls of protein. The binding assay was performed by incubating fluorescently labeled aptamers (FAM) with the protein, and then spinning the tubes down in a microcentrifuge to remove unbound. The pellet was resuspended in selection buffer and spun down again. Bound aptamers were eluted by adding 6 M urea, and spinning again, retaining the supernatant. The aptamers were cleaned up with PCR cleanup columns and the fluorescence was read on a Tecan Sapphire II fluorometer. Excitation was at 497 nm, and emission was at 515 nm. The amount of fluorescence measured in the eluant was divided by the total amount of fluorescence of all fractions.
as §2
Background: SPR reads the build-up and loss of mass on a sensor chip optically.

The target in series [6] is CotE (rCotE N281-F712) (Clostridium difficile). Briefly: SPR. As to conditions: tags: C-terminal His. The procedure: as §1, §2

B1: CdeM_E2 (ssDNA)
DNA: CCAGTGTAGACTACTCAATGCCTTCCATTCACCTACCGAGCTAAGCGTTCGACTTAGGTCTGTACTATCCACAGGTCAACC
As for B1, the binding result in series [1] was “binds”.

B2: Chitinase_D10 (ssDNA)
DNA: CCAGTGTAGACTACTCAATGCCCTATTAGCTGTATCGATCCGTTTAGTCGCTCCTCCGATAGTACTATCCACAGGTCAACC
Turning to B2, the binding result in series [2] is “binds”.

B3: Chitinase_H11 (ssDNA)
DNA: CCAGTGTAGACTACTCAATGCCTTGTAAGAAGAACAATCGCCGCTTCGCCTGAATAGGTTCGTACTATCCACAGGTCAACC
On to B3, for which the binding result in series [2] is recorded as “binds”.

B4: CotA_B1 (ssDNA)
DNA: CCAGTGTAGACTACTCAATGCTTAAGTTCTGGGGACACGTGATGAACGCATTTAATGGGGCGTACTATCCACAGGTCAACC
Turning to B4, the binding result in series [3] is “binds”.

B5: Chitinase_D11 (ssDNA)
DNA: CCAGTGTAGACTACTCAATGCCTGGTAAATCGATGACCGCTGCCTCGCCTGAGTAATCATCGTACTATCCACAGGTCAACC
What is called Kd is the constant that tells how readily two partners part at equilibrium. A lower Kd goes with a tighter complex. Molecule B5 displayed a dissociation constant (Kd) in series [4] of 254 nM.

B6: CotA_C1 (ssDNA)
DNA: CCAGTGTAGACTACTCAATGCCGTGGACTGGTCGGGTTTGGATTCGGCAGATGAATCACTAGTACTATCCACAGGTCAACC
In series [5], B6 came in with a Kd of 6.87 nM.

B7: CotE_D2 (ssDNA)
DNA: CCAGTGTAGACTACTCAATGCTCGACATTTCCGCCCCGACGGCCCTCCTAGTGATGGGGAGAGTACTATCCACAGGTCAACC
In the case of B7, in series [6], the Kd was more than 250 nM.

These data come from US20200385730, “Aptamers Against Clostridium Difficile” (Biovector, Inc., published 2020).
